Test results published in patent US20060100138.

Columns and labels:
[1] = molecular target: T1, Synthetic human type III collagen
T1 chain: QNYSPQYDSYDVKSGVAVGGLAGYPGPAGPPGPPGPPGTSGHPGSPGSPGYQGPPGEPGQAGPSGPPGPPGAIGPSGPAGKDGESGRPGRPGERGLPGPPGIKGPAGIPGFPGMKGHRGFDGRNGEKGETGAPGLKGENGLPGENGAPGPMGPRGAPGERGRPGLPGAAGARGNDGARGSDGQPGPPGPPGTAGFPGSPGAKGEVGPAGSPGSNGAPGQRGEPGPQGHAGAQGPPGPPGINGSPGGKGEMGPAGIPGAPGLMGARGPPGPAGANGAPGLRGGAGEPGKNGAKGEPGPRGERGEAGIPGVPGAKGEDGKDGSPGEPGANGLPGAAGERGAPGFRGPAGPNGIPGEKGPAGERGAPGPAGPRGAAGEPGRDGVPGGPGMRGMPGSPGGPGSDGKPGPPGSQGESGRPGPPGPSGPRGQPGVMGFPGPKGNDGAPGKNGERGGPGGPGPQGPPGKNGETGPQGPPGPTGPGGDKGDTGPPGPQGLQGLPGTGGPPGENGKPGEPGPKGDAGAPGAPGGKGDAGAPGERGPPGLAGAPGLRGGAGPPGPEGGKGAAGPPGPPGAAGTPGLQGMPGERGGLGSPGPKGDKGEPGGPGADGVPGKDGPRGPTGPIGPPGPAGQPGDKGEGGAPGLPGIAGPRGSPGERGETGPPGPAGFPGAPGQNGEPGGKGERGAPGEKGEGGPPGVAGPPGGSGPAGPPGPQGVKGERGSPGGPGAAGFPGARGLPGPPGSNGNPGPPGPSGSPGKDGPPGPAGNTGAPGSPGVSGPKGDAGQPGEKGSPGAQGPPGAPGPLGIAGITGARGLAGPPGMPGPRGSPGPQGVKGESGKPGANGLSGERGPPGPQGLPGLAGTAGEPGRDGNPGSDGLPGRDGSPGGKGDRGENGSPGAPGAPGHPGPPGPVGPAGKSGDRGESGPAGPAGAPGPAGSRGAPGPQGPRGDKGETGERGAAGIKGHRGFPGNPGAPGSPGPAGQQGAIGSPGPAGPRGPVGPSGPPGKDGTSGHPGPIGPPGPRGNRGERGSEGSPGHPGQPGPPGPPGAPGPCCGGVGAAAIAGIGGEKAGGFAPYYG

[2] = molecular target: Synthetic human type I collagen
Chain of Synthetic human type I collagen (chain, as listed by the source, chain 1 of 2): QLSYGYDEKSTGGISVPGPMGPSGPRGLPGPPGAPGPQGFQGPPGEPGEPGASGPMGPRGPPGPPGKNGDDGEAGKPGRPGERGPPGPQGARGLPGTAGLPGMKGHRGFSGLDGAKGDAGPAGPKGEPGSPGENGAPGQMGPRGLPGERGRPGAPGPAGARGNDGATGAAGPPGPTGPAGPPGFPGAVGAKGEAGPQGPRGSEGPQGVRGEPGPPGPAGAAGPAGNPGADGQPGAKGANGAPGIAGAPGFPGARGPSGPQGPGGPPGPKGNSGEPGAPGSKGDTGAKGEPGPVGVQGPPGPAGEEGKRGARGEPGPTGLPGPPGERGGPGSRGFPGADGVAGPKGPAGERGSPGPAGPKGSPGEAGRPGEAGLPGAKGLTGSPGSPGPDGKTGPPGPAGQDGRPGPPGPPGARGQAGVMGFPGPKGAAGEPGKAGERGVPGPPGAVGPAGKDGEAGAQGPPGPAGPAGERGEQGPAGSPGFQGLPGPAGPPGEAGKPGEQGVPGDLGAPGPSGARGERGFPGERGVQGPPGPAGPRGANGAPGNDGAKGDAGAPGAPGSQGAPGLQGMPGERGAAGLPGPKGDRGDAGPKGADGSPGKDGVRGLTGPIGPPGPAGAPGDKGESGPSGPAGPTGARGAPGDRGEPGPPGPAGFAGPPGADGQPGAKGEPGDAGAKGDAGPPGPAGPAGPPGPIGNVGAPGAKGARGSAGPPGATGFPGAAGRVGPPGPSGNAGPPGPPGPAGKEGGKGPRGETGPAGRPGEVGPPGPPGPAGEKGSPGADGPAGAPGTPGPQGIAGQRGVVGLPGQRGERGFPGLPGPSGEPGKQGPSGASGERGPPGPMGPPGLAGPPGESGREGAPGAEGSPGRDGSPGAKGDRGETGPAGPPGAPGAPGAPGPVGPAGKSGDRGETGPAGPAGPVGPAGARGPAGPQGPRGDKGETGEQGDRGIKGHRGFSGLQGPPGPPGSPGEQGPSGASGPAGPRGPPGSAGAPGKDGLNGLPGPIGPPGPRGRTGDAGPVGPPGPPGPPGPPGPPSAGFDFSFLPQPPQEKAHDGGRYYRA
Chain of Synthetic human type I collagen (chain, as listed by the source, chain 2 of 2): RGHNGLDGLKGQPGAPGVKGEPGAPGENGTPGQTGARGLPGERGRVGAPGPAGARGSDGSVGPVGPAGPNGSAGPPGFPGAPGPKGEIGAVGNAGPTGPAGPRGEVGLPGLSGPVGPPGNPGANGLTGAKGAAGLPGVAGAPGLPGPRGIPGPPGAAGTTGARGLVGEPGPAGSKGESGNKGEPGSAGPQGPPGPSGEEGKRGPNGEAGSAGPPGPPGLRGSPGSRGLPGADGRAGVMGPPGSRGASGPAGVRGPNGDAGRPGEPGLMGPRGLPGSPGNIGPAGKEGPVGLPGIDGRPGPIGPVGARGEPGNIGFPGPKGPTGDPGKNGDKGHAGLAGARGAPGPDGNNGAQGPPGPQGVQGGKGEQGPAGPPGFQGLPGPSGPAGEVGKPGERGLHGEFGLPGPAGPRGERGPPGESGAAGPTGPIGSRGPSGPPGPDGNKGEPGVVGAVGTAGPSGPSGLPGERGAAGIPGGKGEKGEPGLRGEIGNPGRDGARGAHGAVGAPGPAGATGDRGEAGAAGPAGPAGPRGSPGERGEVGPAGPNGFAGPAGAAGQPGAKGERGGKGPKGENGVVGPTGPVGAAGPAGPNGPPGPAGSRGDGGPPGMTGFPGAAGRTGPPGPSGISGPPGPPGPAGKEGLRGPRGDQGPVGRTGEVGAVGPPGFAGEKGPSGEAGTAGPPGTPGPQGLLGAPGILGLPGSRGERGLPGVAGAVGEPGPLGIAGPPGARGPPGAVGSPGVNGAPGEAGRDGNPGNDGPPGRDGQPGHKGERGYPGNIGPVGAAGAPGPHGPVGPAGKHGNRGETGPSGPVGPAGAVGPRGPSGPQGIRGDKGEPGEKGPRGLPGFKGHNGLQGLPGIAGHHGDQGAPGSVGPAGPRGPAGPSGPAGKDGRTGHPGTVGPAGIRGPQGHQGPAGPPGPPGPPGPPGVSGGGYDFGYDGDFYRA

B1: MMP-1 (collagenase 1, fibroblast collagenase) (protein)
chain: FVLTEGNPRWEQTHLTYRIENYTPDLPRADVDHAIEKAFQLWSNVTPLTFTKVSEGQADIMISFVRGDHRDNSPFDGPGGNLAHAFQPGPGIGGDAHFDEDERWTNNFREYNLHRVAAHELGHSLGLSHSTDIGALMYPSYTFSGDVQLAQDDIDGIQAIYGRSQNPVQPIGPQTPKACDSKLTFDAITTIRGEVMFFKDRFYMRTNPFYPEVELNFISVFWPQLPNGLEAAYEFADRDEVRFFKGNKYWAVQGQNVLHGYPKDIYSSFGFPRTVKHIDAALSEENTGKTYFFVANKYWRYDEYKRSMDPGYPKMIAHDFPGIGHKVDAVFMKDGFFYFFHGTRQYKFDPKTKRILTLQKANSWFNCRKN
- cleavage of collagen (SDS-PAGE after 1, 2 and 7 days at 37 C) [1]: both synthetic human type I and type III collagen were cleaved by MMP-1 (FIG. 1A) and MMP-8 (FIG. 1B)
- extent of degradation of collagen (SDS-PAGE) [1]: Synthetic human type III collagen was degraded by MMP-1 to a greater extent than by MMP-8
- cleavage of collagen (SDS-PAGE after 1, 2 and 7 days at 37 C) [2]: both synthetic human type I and type III collagen were cleaved by MMP-1 (FIG. 1A) and MMP-8 (FIG. 1B)
